Source: patent US8709741B2, “Methods of diagnosing a plasmodium infection” (priority 2009, dated 2014)
Entries after “also recorded” stand apart in the source; their conditions may differ. Like-named read-outs stand apart in the source and are kept apart here.

B1: III: recombinant human group III secreted phospholipase A2 (protein, UniProt Q9NZ20 20-509, looked up)
Group 3 secretory …: GSPALRWYRTSCHLTKAVPGNPLGYLSFLAKDAQGLALIHARWDAHRRLQSCSWEDEPELTAAYGALCAHETAWGSFIHTPGPELQRALATLQSQWEACRALEESPAGARKKRAAGQSGVPGGGHQREKRGWTMPGTLWCGVGDSAGNSSELGVFQGPDLCCREHDRCPQNISPLQYNYGIRNYRFHTISHCDCDTRFQQCLQNQHDSISDIVGVAFFNVLEIPCFVLEEQEACVAWYWWGGCRMYGTVPLARLQPRTFYNASWSSRATSPTPSSRSPAPPKPRQKQHLRKGPPHQKGSKRPSKANTTALQDPMVSPRLDVAPTGLQGPQGGLKPQGARWVCRSFRRHLDQCEHQIGPREIEFQLLNSAQEPLFHCNCTRRLARFLRLHSPPEVTNMLWELLGTTCFKLAPPLDCVEGKNCSRDPRAIRVSARHLRRLQQRRHQLQDKGTDERQPWPSEPLRGPMSFYNQCLQLTQAARRPDRQQKSWSQ
B2: IIF: recombinant human group IIF secreted phospholipase A2, full length (protein, UniProt Q9BZM2 21-168, looked up)
Group IIF secretory …: SLLNLKAMVEAVTGRSAILSFVGYGCYCGLGGRGQPKDEVDWCCHAHDCCYQELFDQGCHPYVDHYDHTIENNTEIVCSDLNKTECDKQTCMCDKNMVLCLMNQTYREEYRGFLNVYCQGPTPNCSIYEPPPEEVTCSHQSPAPPAPP
B3: IIA: recombinant human group IIA secreted phospholipase A2 (inflammatory type) (protein, UniProt P14555 21-144, looked up)
Phospholipase A2, membrane …: NLVNFHRMIKLTTGKEAALSYGFYGCHCGVGGRGSPKDATDRCCVTHDCCYKRLEKRGCGTKFLSYKFSNSGSRITCAKQDSCRSQLCECDKAAATCFARNKTTYNKKYQYYSNKHCRGSTPRC
B4: IIE: recombinant human group IIE secreted phospholipase A2 (protein, UniProt Q9NZK7 20-142, looked up)
Group IIE secretory …: NLVQFGVMIEKMTGKSALQYNDYGCYCGIGGSHWPVDQTDWCCHAHDCCYGRLEKLGCEPKLEKYLFSVSERGIFCAGRTTCQRLTCECDKRAALCFRRNLGTYNRKYAHYPNKLCTGPTPPC
B5: XIIA: recombinant human group XIIA secreted phospholipase A2 (protein, UniProt Q9BZM1 23-189, looked up)
Group XIIA secretory …: QEQAQTTDWRATLKTIRNGVHKIDTYLNAALDLLGGEDGLCQYKCSDGSKPFPRYGYKPSPPNGCGSPLFGVHLNIGIPSLTKCCNQHDRCYETCGKSKNDCDEEFQYCLSKICRDVQKTLGLTQHVQACETTVELLFDSVIHLGCKPYLDSQRAACRCHYEEKTDL
B6: V: recombinant human group V secreted phospholipase A2 (protein, UniProt P39877 21-138, looked up)
Phospholipase A2 group V: GLLDLKSMIEKVTGKNALTNYGFYGCYCGWGGRGTPKDGTDWCCWAHDHCYGRLEEKGCNIRTQSYKYRFAWGVVTCEPGPFCHVNLCACDRKLVYCLKRNLRSYNPQYQYFPNILCS
B7: XIIB: recombinant human group XIIB sPLA2-like protein (protein, UniProt Q9BX93 20-195, looked up)
Group XIIB secretory …: QSDTSPDTEESYSDWGLRHLRGSFESVNSYFDSFLELLGGKNGVCQYRCRYGKAPMPRPGYKPQEPNGCGSYFLGLKVPESMDLGIPAMTKCCNQLDVCYDTCGANKYRCDAKFRWCLHSICSDLKRSLGFVSKVEAACDSLVDTVFNTVWTLGCRPFMNSQRAACICAEEEKEEL

Tests used:
[1] = test system: P. falciparum FcB1/Colombian strain; assay: Anti-Plasmodium activity assay (dose-response, 3H-hypoxanthine incorporation), culture with human serum; format: cell-based; conditions: for inhibition of P. falciparum development in vitro: standard P. falciparum cultures with serum
Experimental: (§1) The chloroquine-resistant P. falciparum FcB1/Colombian strain was used. Under the following culture conditions, the in vitro life cycle of the FcB1 strain was 48 hours. Cultures were grown in complete medium consisting of RPMI 1640 (Life Technologies, Inc.) supplemented with 11 mM glucose, 27.5 mM NaHCO3, 100 UI/mL penicillin, 100 μg/mL streptomycin, adjusted to pH 7.4 before addition of heat-inactivated human serum (A+ blood group, 8% final) or Albumax II® (0.5% final), according to the procedure of Trager and Jensen (1976). Parasites were routinely grown at 37° C. in human A+ RBCs (Red blood cells) at a 2% haematocrit and 2-6% parasitemia, in a 3% CO2, 6% O2 and 91% N2 atmosphere. Semi-synchronized cultures were established by Sorbitol (Lambros) treatment. Highly synchronized cultures (4 hour-window synchronization) were obtained by successive Plamion (Pasvol) and Sorbitol treatments. Parasitaemia and stage distribution were determined by optical examination of Diff-Quick stained culture smears. Parasitaemia (expressed in percent) is hundred times the number of parasitized erythrocytes divided by the total number of erythrocytes.
(§2) Dried preparations of the purified recombinant human sPLA2s were re-suspended at high concentration (usually 50 μM) in RPMI 0.05% BSA, and then tested individually for their capacity to inhibit the in vitro intra-erythrocytic development of P. falciparum. Dose-response assays based on ^3H-hypoxanthine incorporation by growing parasites were performed as in Guillaume et al. (2004). Radioactivity was measured with a 1450 Microbeta counter (Wallac, Perkin Elmer). Percentage of growth inhibition was calculated from the parasite-associated radioactivity compared with control without sPLA2. Values for the IC50 were determined from dose-response curves.

P. falciparum = assay: Anti-Plasmodium activity assay in Albumax II (serum substitute); format: cell-based; conditions: Albumax II instead of serum
Experimental: as §1, with “Highly synchronized cultures (4 hour-window synchronization) were obtained by successive Plamion (Pasvol) and Sorbitol treatments.” left out, “Parasitaemia (expressed in percent) is hundred times the number of parasitized erythrocytes divided by the total number of erythrocytes.” left out
as §2, with “Dose-response assays based on ^3H-hypoxanthine incorporation by growing parasites were performed as in Guillaume et al. (2004).” left out, “curves. […]” for “curves.”

[2] = Specific activities of sPLA2s on human plasma (NEFA release, NEFA-C kit); format: biochemical; conditions: for Specific activity ± SD (μmol NEFA/min × mg enzyme): whole human plasma, 37° C., linear part of kinetic curve, mean of three experiments
Experimental: Kinetic analysis of human plasma hydrolysis by sPLA2s was performed by mixing on ice 50 μL of crude plasma with recombinant sPLA2s at various final concentrations (respectively 2×, 5× and 10× the IC50 value). At time zero, the mixture was transferred to 37° C. Samples (7 μL) were taken after 5, 15, 30 and 60 minutes of incubation and quickly frozen at −20° C. An aliquot of plasma without enzyme was similarly processed. Concentration of non-esterified fatty acids (NEFAs) in each sample was measured by a discontinuous enzymatic method using the NEFA-C test kit from WAKO, following manufacturer's instructions. The amount of NEFAs in each enzyme-containing plasma sample was subtracted for NEFAs in enzyme-free plasma sample. Specific activity for each of the sPLA2s was determined from the linear part of the curve [NEFA]=f(t). Experiment was repeated three times with plasmas from different donors and different batches of sPLA2s.
Specific activities of sPLA2s on human plasma. Hydrolysis of plasma phospholipids by human and venom sPLA2s was assayed using different incubation times and enzymes concentrations. Hydrolysis was assessed by measuring the amount of NEFAs in samples using the colorimetric assay developed by WAKO (NEFA-C kit). Enzymatic production of NEFAs was corrected for endogenous production of NEFAs measured in the absence of sPLA2. Specific activity for each of the sPLA2s was determined from the linear part of the kinetic curve. Values are the mean of three independent experiments. SD: standard deviation. Anti-P. falciparum activities (IC50) of the respective sPLA2s are given for comparison.

[3] = Enzymatic hydrolysis of purified lipoproteins (NEFA); format: biochemical, human; conditions: 15 h at 37° C.
Experimental: CM/VLDL, LDL and HDL were purified from human plasma and used either fresh (F) or after minimal oxidization by air and light (Ox). After phospholipid content determination, plasma, LDL and HDL were adjusted to 1.6 mg PL/mL final concentration in PBS calcium. Because low amount was available, the CM/VLDL fraction was adjusted to 1.0 mg PL/mL. Each sample was incubated for 15 hours at 37° C., alone or in the presence of recombinant human GX sPLA2 (hGX PLA2; 25 nM), recombinant human GIIF sPLA2 (hGIIF PLA2; 125 nM), bee venom sPLA2 (bvPLA2; 0.18 nM) and Naja mossambica mossambica venom sPLA2 (Naja PLA2; 0.05 nM). NEFAs were quantified using the NEFA-C kit (WAKO). Values are the mean±SD of triplicate measurements. They were normalized by subtracting NEFA amount in the absence of enzyme. Two independent experiments with lipoproteins from different plasmas were performed, which gave similar qualitative results. Results from one experiment are shown;
Plasma and purified LDL and HDL were adjusted to 1.67 mg phospholipid (PL)/mL final concentration in PBS. Because purification yielded low amount of CM/VLDL, the CM/VLDL fraction was adjusted to 1.00 mg PL/mL. CaCl2 (1 mM final) was added to the lipoprotein fractions. 200 μL of each fraction were deposited in a 96-well plate and incubated for 15 hours at 37° C., alone or in the presence of recombinant human GX sPLA2 (hGX PLA2, 25.0 nM), recombinant human GIIF sPLA2 (hGIIF PLA2, 125.0 nM), bee venom sPLA2 (bvPLA2, 0.18 nM) and Naja mossambica mossambica venom sPLA2 (Naja PLA2, 0.05 nM). NEFAs were measured in triplicate using the NEFA-C kit (WAKO). Value from each fraction was normalized by subtracting the NEFA amount in the corresponding fraction without enzyme. Two independent experiments with lipoproteins from different plasmas were performed, which gave similar qualitative results. According to the experiment, maximum hydrolysis reached 50% or 65% of total PLs in the fraction. […]

[4] = Rosengren et al., 2006; cited from earlier work
[5] = culture in human red blood cells and serum, mean of independent dose-response assays, read-out: IC50 ± SD (anti-P. falciparum activity)
[6] = Table II, read-out: IC50 (nM), anti-P. falciparum activity given for comparison

Molecule	IC50 [1, 5]	inhibition of P. falciparum development in vitro [1]	also measured
IB: recombinant human group IB secreted phospholipase A2	> 1250 nM	non-toxic	–
IID: recombinant human group IID secreted phospholipase A2	> 250 nM	non-toxic	–
B1	–	non-toxic	–
B2	14.3 ± 10.4 nM	active against P. falciparum	IC50 [1, 6]: 14.3 ± 13.4 nM; increase of IC50 value in Albumax II relative to its value in serum (P. falciparum): approximately 17.5 fold; Specific activity ± SD (μmol NEFA/min × mg enzyme) [2]: 0.92 ± 0.30 μmol NEFA/min × mg enzyme; hydrolysis of triglyceride-rich lipoproteins (CM/VLDL) ([3]; 125 nM): hydrolysed poorly; preferential order of lipoprotein hydrolysis ([3]; each sPLA2 at approximately 10×IC50): same preferential order than GX sPLA2
B3	> 1250 nM	–	inhibition of P. falciparum development in vitro ([1]; listed as GIIA): non-toxic; inhibition of P. falciparum development in vitro ([1]; listed as GIIA sPLA2): clearly inactive; also recorded: does not exhibit any inhibitory activity; hydrolysis of plasma ([2]; high concentration (1 μM), not shown): inefficient at hydrolysing plasma; hydrolysis of serum [4]: found inactive
B4	> 250 nM	non-toxic	–
B5	> 250 nM	non-toxic	–
B6	162 ± 90.9 nM	active against P. falciparum	IC50 [1, 6]: 162 ± 90.9 nM; Specific activity ± SD (μmol NEFA/min × mg enzyme) [2]: 0.33 ± 0.09 μmol NEFA/min × mg enzyme; hydrolysis of serum [4]: found active
B7	> 250 nM	non-toxic	–
